B1: library; numbered along this chain (parent)
chain: MRKPRAAVGSGHRKQAASQEGRQKHAKNNSQAKPSACDGLARQPEEVVLQASVSSYHLFRDVAEVTAFRGSLLSWYDQEKRDLPWRRRAEDEMDLDRRAYAVWVSEVMLQQTQVATVINYYTGWMQKWPTLQDLASASLEEVNQLWAGLGYYSRGRRLQEGARKVVEELGGHMPRTAETLQQLLPGVGRYTAGAIASIAFGQATGVVDGNVARVLCRVRAIGADPSSTLVSQQLWGLAQQLVDPARPGDFNQAAMELGATVCTPQRPLCSQCPVESLCRARQRVEQEQLLASGSLSGSPDVEECAPNTGQCHLCLPPSEPWDQTLGVVNFPRKASRKPPREESSATCVLEQPGALGAQILLVQRPNSGLLAGLWEFPSVTWEPSEQLQRKALLQELQRWAGPLPATHLRHLGEVVHTFSHIKLTYQVYGLALEGQTPVTTVPPGARWLTQEEFHTAAVSTAMKKVFRVYQGQQPGTCMGSKRSQVSSPCSRKKPRMGQQVLDNFFRSHISTDAHSLNSAAQ

Variants of: B1
Experiment: 8OG:A repair function score (normalized; synonymous = 0, nonsense = -1) (normalized log-likelihood score); higher = more repair activity (WT-like)
Conditions: with 8OG:A DNA repair reporter (GFP) in HEK-293 MUTYH KO cells
Summary of the method: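 With 10 pg/ml doxycycline, MUTYH knockout HEK-293 cells carrying lentiviral MUTYH cDNA NNN codon-scan libraries were co-transfected with mCherry and an 8OG:A GFP repair reporter. Viable mCherry+ cells were sorted into GFP+ (repair) and GFP− bins at 72 h, three replicates per tile, and tile amplicons were sequenced. Per-tile Rosace fitness scores were then normalized into a repair function score anchored on synonymous and nonsense distributions. Medians were fixed at 0 for synonymous and -1 for nonsense, excluding variants under 300 counts per million at the start.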

Variant | 8OG:A repair function score
H514L | -0.0137
H514R | -0.0107
H514T | -0.02
H514N | 0.00779
H514M | -0.00625
H514Q | 0.00808
H514Y | -0.00319
H514C | -0.00794
H514S | -0.0171
H514K | 0.0132
H514G | 0.0114
H514P | -0.00868
H514E | -0.0112
H514W | -0.03
H514I | -0.00558
H514D | -0.0358
H514F | -0.0319
H514A | -0.021
H514V | 0.0053
D512H | -0.0208
D512W | -0.023
D512L | -0.0115
D512C | 0.0193
D512E | -0.0165

Variant | 8OG:A repair function score
D512Q | -0.02
D512Y | -0.0038
D512I | -0.0146
D512T | -0.0649
D512S | -0.0201
D512A | -0.0123
D512N | -0.0198
D512F | -0.0699
D512P | -0.0253
D512M | -0.033
D512G | -0.00398
D512K | -0.0591
D512R | -7.7e-05
D512V | 0.00239
S515R | 0.00703
S515Y | 0.025
S515M | -0.00894
S515P | -0.0381
S515Q | -0.00958
S515W | -0.0167
S515E | 0.0198
S515G | -0.000426
S515D | -0.0425
S515A | -0.018

Variant | 8OG:A repair function score
S515C | -0.0274
S515F | -0.00769
S515L | -0.00831
S515H | -0.0115
S515V | 0.00837
S515N | 0.0152
S515T | -0.00495
S515I | -0.0207
S515K | -0.00207
V500I | 0.0202
V500L | 0.00153
V500D | -0.00453
V500N | -0.0108
V500R | 0.00797
V500K | -0.0181
V500P | -0.0532
V500S | 0.00727
V500F | -0.0131
V500T | 0.02
V500G | 0.00844
V500W | -0.015
V500Q | 0.00719
V500E | 0.0219
V500H | 0.0251

Variant | 8OG:A repair function score
V500M | 0.0185
V500Y | -0.00833
V500C | -0.0118
V500A | 0.00946
F505M | -0.0487
F505K | -0.0487
F505R | 0.016
F505S | 0.0199
F505H | -0.0303
F505Y | 0.00392
F505T | 0.0174
F505I | 0.0133
F505A | 0.00138
F505C | 0.0238
F505L | 0.0157
F505G | 0.00871
F505Q | 0.0246
F505W | 0.00244
F505V | 0.00446
F505N | 0.0264
F505P | 0.0167
F505D | 0.0229
A513K | 0.0278
A513R | 0.00911

Variant | 8OG:A repair function score
A513Y | -0.00892
A513W | -0.0476
A513P | -0.0105
A513N | 0.0128
A513Q | 0.0184
A513F | -0.00203
A513V | -0.0254
A513E | -0.0288
A513S | 0.00165
A513H | -0.0076
A513L | -0.00457
A513C | -0.00572
A513D | 0.0137
A513M | -0.0173
A513I | 0.00892
A513G | 0.0049
A513T | 0.000215
Q499N | -0.0201
Q499W | -0.0171
Q499G | -0.0117
Q499K | -0.00715
Q499D | -0.0217
Q499E | 0.0257
Q499T | -0.00713

Variant | 8OG:A repair function score
Q499S | 0.00646
Q499M | 0.00183
Q499Y | -0.045
Q499F | -0.00963
Q499I | 0.0124
Q499H | 0.0243
Q499R | -0.0243
Q499V | 0.0113
Q499P | 0.0119
Q499L | 0.00129
Q499C | 0.00111
S510A | -0.00841
S510E | -0.0364
S510G | -0.0202
S510N | -0.0738
S510D | -0.0311
S510Q | -0.053
S510I | -0.0731
S510Y | -0.0344
S510H | 0.0212
S510C | -0.0307
S510R | 0.00127
S510F | -0.00526
S510M | -0.0272

Variant | 8OG:A repair function score
S510K | -0.00453
S510V | -0.00843
S510L | 0.0205
S510P | 0.0141
S510W | -0.046
S510T | 0.00117
S507P | 0.0118
S507R | -0.00355
S507A | -0.0386
S507W | -0.0429
S507Q | -0.0688
S507C | -0.0153
S507N | -0.0395
S507I | -0.0448
S507V | -0.000918
S507H | -0.084
S507T | 0.0162
S507D | -0.0424
S507L | -0.0301
S507M | -0.0199
S507G | -0.00119
S507E | 0.000264
S507F | -0.0917
S507K | -0.0064

Variant | 8OG:A repair function score
S507Y | -0.141
D502A | -0.0186
D502N | 0.011
D502M | -0.0464
D502P | -0.0101
D502H | -0.0311
D502E | -0.0204
D502F | -0.0425
D502K | -0.00432
D502R | 0.0187
D502W | -0.0396
D502C | -0.00279
D502G | -0.00456
D502I | -0.0355
D502Y | -0.0488
D502T | 0.00564
D502S | -0.0153
D502L | -0.0337
D502Q | -0.0749
D502V | -0.0389
H508T | 0.0103
H508V | -0.0097
H508W | 0.018
H508D | -0.000798

Variant | 8OG:A repair function score
H508R | -0.0128
H508M | -0.0245
H508G | -0.00256
H508Y | 0.0034
H508C | -0.0231
H508Q | 0.000578
H508E | 0.0183
H508L | -0.0429
H508N | -0.00695
H508K | -0.0603
H508P | 0.00413
H508F | -0.00232
H508S | -0.00585
H508A | -0.00475
H508I | -0.0148
R506T | 0.0259
R506F | -0.0582
R506V | -0.0196
R506G | -0.0057
R506N | 0.00916
R506E | 0.0109
R506Y | 0.0145
R506A | -0.0637
R506S | 0.00235

Variant | 8OG:A repair function score
R506W | -0.0815
R506K | 0.0152
R506I | 0.0189
R506P | 0.0202
R506C | 0.0164
R506L | 0.00814
R506D | 0.0134
R506Q | -0.052
L501E | 0.0149
L501T | -0.0124
L501S | 0.0215
L501H | 0.0143
L501N | -0.0105
L501D | 0.00991
L501M | 0.0114
L501F | 0.0198
L501V | 0.00157
L501A | 0.00122
L501R | 0.00197
L501K | -0.0877
L501I | -0.0198
L501Y | -0.0132
L501Q | 0.02
L501W | -0.00606

Variant | 8OG:A repair function score
L501G | 0.00711
L501P | 0.0273
L501C | -0.00326
T511I | -0.0251
T511K | -0.00393
T511A | -0.038
T511C | -0.014
T511W | -0.0217
T511F | -0.00618
T511D | -0.0938
T511V | -0.00751
T511P | -0.0422
T511L | -0.0126
T511E | -0.0321
T511M | -0.0046
T511S | -0.0121
T511N | -0.0682
T511Y | 0.0102
T511G | 0.00111
T511Q | 0.0207
T511R | 0.00505
T511H | 0.0209
N503P | -0.000934
N503K | -0.0135

Variant | 8OG:A repair function score
N503L | 0.00339
N503M | -9.05e-05
N503G | 0.00621
N503W | -0.011
N503F | 0.0039
N503A | 0.0125
N503T | 0.00666
N503Y | -0.0151
N503Q | 0.0112
N503S | -0.019
N503V | -0.0118
N503E | 0.0211
N503C | 0.00549
N503D | -0.0599
N503I | -0.0307
N503H | -0.0815
N503R | -0.0109
I509Q | 0.0194
I509Y | -0.0704
I509W | -0.00561
I509L | 0.00266
I509M | -0.0347
I509G | -0.00592
I509E | 0.0145

Variant | 8OG:A repair function score
I509P | 0.0272
I509T | 0.026
I509S | 0.0252
I509F | -0.0535
I509H | 0.0112
I509R | -0.0323
I509A | 0.0157
I509N | 0.0286
I509K | -0.00442
I509C | -0.00892
I509V | 0.0164
I509D | -0.00523
F504W | -0.0289
F504H | 0.0204
F504C | -0.00333
F504G | -0.0353
F504D | 0.0276
F504N | 0.023
F504R | -0.00117
F504A | 0.00928
F504T | 0.0122
F504Y | 0.0257
F504M | 0.0285
F504P | -0.0247

Variant | 8OG:A repair function score
F504E | 0.0256
F504K | -0.0046
F504S | 0.0238
F504Q | -0.00826
F504V | -0.00446
F504I | 0.00771
F504L | 0.0067
L516R | -0.0194
L516Q | 0.0225
L516A | 0.017
L516S | 0.0241
L516G | 0.00843
L516C | 0.00795
L516H | 0.0157
L516K | 0.00908
L516F | 0.0067
L516P | 0.00373
L516E | 0.0196
L516I | 0.0106
L516N | 0.0104
L516M | 0.00845
L516D | -0.0107

— the supplement of paper PMC11908140
